Assay results from patent publication US20050239704.

Biological target: T1, SarA (Staphylococcus aureus) (UniProt Q2G2U9)
T1 sequence: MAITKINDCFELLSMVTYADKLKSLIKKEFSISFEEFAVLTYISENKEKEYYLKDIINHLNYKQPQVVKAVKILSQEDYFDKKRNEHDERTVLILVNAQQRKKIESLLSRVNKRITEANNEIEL
Experiment: EMSA
Settings: 2-5 ng radiolabeled P1 fragment; scale: fold more protein than SarR for complete shift

## sarA P1 promoter fragment (nt 531-859)
  binding signal: 10
